This data set in a line: soluble on expression in E. coli; label from the status in PepcDB or PDB records.
For “MSLDKGTVDGRLYQLFKTCIQGINSPLSSVALRSDFYILANHYLSRVLSDQVGSEKVLQDLRLGSKKLVEIIWNDVVYGEGTSRVTGILLLDSLIQLANRSKENFILDSLMKTTRLLLIIRSLKNTDALLNSTTEHINIDDLLYELTAFKATVFFLIRVAETRGGASALIENNLFRIIAELSFLKVDPDLGLDLMFDEVYVQNSKFLKVNVTLDNPLLVDKDANGVSLFELIVPIFQLISAVLVSMGSSNKAVVQTVKGLLNTYKRLVIGIFKRDLLREKEDKKNSSDPNNQSLNEMVKLIVMLCTLTGYQNNDEGHHHHHH”, the “soluble on expression in E. coli” value is reported as “not soluble”.
Then “EIGLLLAILLFMKRVTENTRITVATGRLDLTQTGEIAHHDEVLDIPKGVEVYEIEGPFFFGIANRFEEIMNTLGDHPDVRIIRMRHVPFMDSTGMHNLENLIKMSRKEGVSIVLSGVRKDVHEELATAGIVELLGEENVCADIQAALRQAQAIAQGA”, with “not soluble”; and “MKVGIDAGGTLIKIVQEQDNQRTFKTELTKNIDQVVEWLNQQQIEKLCLTGGNAGVIAENINIPAQIFVEFDAASQGLGILLKEQGHDLADYIFANVGTGTSLHYFDGQSQRRVGGIGTGGGMIQGLGYLLSQITDYKQLTDMAQHGDRNTIDLKVRHIYKDTEPPIPGDLTAANFGHVLHHLDADFTPSNKLAAVIGVVGEVVTTMAITVAREFKTENIVYIGSSFHNNALLRKVVEDYTVLRGCKPYYVENGAFSGAIGALYLEKLEHHHHHH”, with “soluble”; and “MKQFSGLSRTIQGNHLLDTCAIDILKIGHRPLVLCAKQEYNTTVESFVKVLTCHGLIVKIVYMEEWDQNSVEECGEVGFRHRADHIIGIGNSSVAACTKAVADLLDLPAVLIPTSPFTTLPWVSVENKKRERPLFNESIQLIIADREQLLTQPTSELINGVVNTLLYLAAIKEVKRNHLFSLVDDILIRSFESVLLRGSLQAIEDFEARILSKEVQDVLEVLSTCVTLDLPSDAWDVIQQIESKLSERREDLVDEPLKRNVVLYLLLSYLTQESEEFQARLKWCQQLLLSANSSNLLSLEAVLKEIALEMGEDGSTRC”, with “soluble”.
Then “MLIVLPPSETKAVGGKNPAIDFDSLHFPTLNPIRKEIAHDLARLDISQAQEILKLSQKLLPEAQRNIELFQSPTMPAVLRYTGVLYDALDATSLPSSTWEHLAIGSALFGVVMANDNIPHYRLSGTTKLPCADASVPTLKRRWGNAISTALSDTNEVILDLRSGTYQQLGKVKHAITVRVESEDSDGKRSVISHFNKHYKGQLARALLLHDVTPDPDHAIEDLIGMTQECGFAVEHSKPHELTVVITQ”, with “not soluble”.
The result for “LSNFQGKVMMTVNATDVTDVITIPTAAGKNLCIVRAMDVGYMCDDTITYECPVLSAGNDPEDIDCWCTKSAVYVRYGRCT” reads “soluble”.
“MHHHHHHSSGVDLGTENLYFQSMSTDSVISSESGNTYYRVVLIGEQGVGKSTLANIFAGVHDSMDSDCEVLGEDTYERTLMVDGESATIILLDMWENKGENEWLHDHCMQVGDAYLIVYSITDRASFEKASELRIQLRRARQTEDIPIILVGNKSDLVRCREVSVSEGRACAVVFDCKFIETSAAVQHNVKELFEGIVRQVRLRRDSKEKN”: the “soluble on expression in E. coli” value is “soluble”.
Take “MTETGGRHLLEALTLCEVILSRYKRCGLQVDETETKAFQAVSERFHEITHATQGDNAAFVKSQKIIKMAPAIPTIGAVFQTPLESVTKLMEKCIDLCLPIKEVFIMLNEQISAVLRTKNTRTYYLDSGDDLLKDPVNGIAALVDERTPLGKTLFCTRPFSIAGTLYIPLLHNETVIGCVESPSGRTDYHSQAIIDAVLRVAATVIHNTIESERLNWNKEKAEAMLTMATQLARDNLDEAVLANSIMNTAKVLTESDRCSIFLVKDDTLEAHFEDGNIVAIPIATGIAGYVAQTGQTVKISDAYSDDRFNREVDKATGYRTKTILCMPVTYEGSIVAVAQLINKLDMVTESGLRLPRTFGKRDEELFQTFSMFAGASLRNCRINEKLINEKRKSDAILDVVTLLSNTDIRDVDGIVRHVLHGAKRLLYADRSALFLVDKERNELYSRIADSVAGKEIRFPCGQGIAGVVASTGIGENILDAYQDPRFNREVDKQLGYRTQTLLCEPIVLNGEILAVVQLVNKLNEAGEVTVFTESDRETFRVFSLFAGISINNSHLLEFAVKAGREMMELNENRALAGGRTGSLRNIKRPLAITETERQAVRDINLAHLDITSIDFDLFYLRENMDLPLDAAAAVAYRLIVGTGLPQKFRCRDDTLLNFILQCRKKYRNVPYHNFYHVVDVCQTIYTFLYKGAVCEKLTELDCFVLLVTALVHDLDHMGLNNSFYLKTDSPLGILSSASGNASVLEVHHCNLAVEILSDPDSDVFEGLDATDRTLAYRSMIDCVLATDMAKHNELLSLFLVAMEKPYRIGDVASRQMMMDVIVKAGDVSNVTKPFDISRLWAMAVTEEFYRQGDMEKEKGVEVLPMFDRSKNTELAKGQIGFIDFVAGPFFKKIVSASLTGMQWTVERVESNRLEWQRTLDLKAAGDGNK”: the “soluble on expression in E. coli” value was “not soluble”.
Then “MGSDKIHHHHHHMMSWADKYRPKNIDDVILNSEIRKQITEWIESWKEGIPKKRSLILYGSQGTGKTTTAYAIAGTFGVPVVEMNASDQRNRDSMRGTALMASLYGDLFVESAKRPSKVILIDEADNMFERGGDTGGIYELSKIIKNSANPIVITMNDIFEFRKKNYASDVISASLTIEMKQYGRKLDKNYNEFRRNIKARLIFILKNEGYTLPDQVVDRIIDRNMPDIRSMINDLEASAVSGTNISDQSSRDVPEIVYYMVDKAFKRNYDDTLRSIYGSDIDDSYYVSWIDENLPLKTVDLQDLVSAYEVISYADHILWAMERRRHYELMAFPMEIAGGVAYYIENMKHEYVKYQSPSYISQMSKTKEKRHAMMSLALKIGLLIHMGAQRTSEDLWFYSLLYQHNEKLRTFFEEKLNLTQGEENVLTRSE”, with “not soluble”; and “MGSDKIHHHHHHMHSLTPEYLAALCFDGTQVATLRTLGEYQGKQQLYAAQSPEALKGLRQIAVVESTESSNRLEGVVVAPSRLKSLVIRNATPKSRSEQEIAGYRDALALIHESAAHMPFSEGVVLQLHTLLYRYMPQAGGRWKATNNDIIERHPDGTSRLRFQPVASHLTPMAMADLTGRYATALDQHLADPLVLVPLAMLDLLCIHPFPDGNGRMSRLLTLLLLYHFDYAVGRYISLERIFEETKESYYETLEASSQGWYQGQHDVKPWLDYFWGALLRAYREFEERVGTIERGRGSKGDRVRAEVLGRSLPFSISEIEEACPGVSRDMVRLVLRAMKSEGLIESTGKGRGAKWIKQG”, with “not soluble”; and “MGSDKIHHHHHHVSDLLSQDEIDALLHGVDDVDDDDDLDAASQDARSYDFSSQDRIVRGRMPTLEIVNERFARHLRISMFNMMRRAAEVSINGVQMLKFGEYVHTLFVPTSLNMVRFSPLKGTALITMEARLVFILVDNFFGGDGRFHAKIEGREFTPTERRIVQLLLKIIFEDYKDAWAPVMDVEFDYLDSEVNPAMANIVSPTEVVVINSFHIEVDGGGGDFHITMPYSMIEPIRELLDAGVQSDKQDTDMRWSQALHDEIMDVKVGFDACVVEHELTLKDVMNFKAGDIIPVELPEYIMMKIEDLPTYRCKMGRSRDNLALKIYEKIPRPETVKTELQLVTRKGKARDISEL”, with “not soluble”.
For “METQENMIKTALQAAQKPFFEFAPNNTPLVFTPDQDGGWRYKSHPELMQNPYRKCGKFLMHDTASLIKFVQKHKQDGTQIYIDADFKSGRIDVTAVINGHTQQAPGWLDFYAVYTPQHTTSASNWLNNNAHRMNQMEFSHFLTNNARNIVSKNPGNENSVYPTAAEVLDFALNLEYTEKTTFKQGYREQDGRINFTFQSEDSGQTEKNLKMFERFGIEFTPHQGGASYFVEALLKFRIDKNSGALVLWYELQQIDAVIEQAAKDISEAVQKAFPEIDIYFGVIA”, the “soluble on expression in E. coli” value was “soluble”.
For the sequence “MLIAFEGIDGSGKTTQAKKLYEYLKQKGYFVSLYREPGGTKVGEVLREILLTEELDERTELLLFEASRSKLIEEKIIPDLKRDKVVILDRFVLSTIAYQGYGKGLDVEFIKNLNEFATRGVKPDITLLLDIPVDIALRRLKEKNRFENKEFLEKVRKGFLELAKEEENVVVIDASGEEEEVFKEILRALSGVLRV”, the “soluble on expression in E. coli” value is on record as “soluble”.
Then “MEDGRTSDKVLEKIQEKIFSGEWKPGQKIMSETKLAEDLNVSRVSVREAIEKLAAFNIVSKKKGGGTFINDLGPSVYLNSLLPMLILNRDNYLEILEFRLITEPESAKLCAERCDDELIISLEKIYDNMKNYKDDIQKFTKEDLNFHTKIAEGTKNSLIIKINELLMNILEYHQRGLYETLGPKGGICEHKFILDAIKNRDSELAFIYSRRHAERTINDLKKLQT”, with “not soluble”; and “MSKDAKSPKKLRSNRAALTHKVGYALRHPERVGPYVRRAGRDAWLRVKHPDHVGYYRAVMASDARRSPEAAVGSRTHDRWLALGQMQFDYLVEHGLRPGHRMLDIGCGNLRGGWRFIDHLDSGHYYGVDISPDILIAAKKTLTERGLQAKLPHLTITGDLRLEFLPDDHFDVVHAHSVFSHSPLNVIDECLAHVGRVLTDTGFFDFTFDRTEGTEHQVLREDFYYRTDTLLTLAAQHNLHARFMEDWEKRPHGQSKIRVSRSPLPSLEHHHHHH”, with “not soluble”.
Then “TPIINDPETVKLFLLTELQHEEREVFMVLFLDNQHRLIKKERLFLGTIYVSAVYPREIIKEALYCNAAALILAHNHPSGITEPSYSDQLITKKIQDAAELMEIRVLDHLIVGKSDCYSFAENCLL”, with “not soluble”.
The result for “MKRIGVLTSGGDSPGMNAAIRAVVRKAIFHDIEVYGIYHGYAGLISGHIEKLELGSVGDIIHRGGTKLYTARCPEFKDPEVRLKGIEQLKKHGIEGLVVIGGDGSYQGAKKLTEQGFPCVGVPGTIDNDIPGTDFTIGFDTALNTVIDAIDKIRDTATSHERTYVIEVMGRHAGDIALWAGLADGAETILIPEEEYDMEDVIARLKRGSERGKKHSIIVVAEGVGSAIDIGKHIEEATNFDTRVTVLGHVQRGGSPSAQDRVLASRLGARAVELLIAGKGGRCVGIQDNKLVDHDIIEALAQKHTIDKDMYQLSKELSI” reads “not soluble”; that for “GMYAVPILNVYDFEVKKDKETSYKSATEDYVNKTMGVEQGVLGLFAATDERDKTTSYIVEIYNDYLAFSNHTKNQASKDFKAVIPQIAEGNLNSAEIDVQIAKDKKIEQNDNTFAVYTVIDVKPENDKEFAEIIKNIVETTFNEEGTLLVYLGTDRRNFNKWCLFEVYKDIDSYLNHRSAKYFKDYITQTKDMIAGKKRAELQVLKIENKGGLDYKKLY”, “soluble”; that for “MDKFKYAFDNKRYHTWNYYLRNTFGEKVFKVSINAGFTCPNIDGSLGYGGCTYCSKEGSGDFAGNPKDNLISQFYNIKEMMLKKWPHAKYIGYFQAYTNTYAPLEVLKEKYETILELEDVIGLSISTRPDCLPDDIVEYLSELNKRTNLWVELGLQTIHDSTSKIINRGHDYKTFVEGVEKLKSKNIKVVVHIINGLPGEDYNMMMETAKAVGKMGVDGIKIHLLHVIKDTPMEKMLQNGMLTLMEQDEYINLVCDQLEILPETMIIHRLTGDGKRDELVGPIWSLKKWEILNKIDDTLKARNSYQGCKFV”, “soluble”.
Take “MGSDKIHHHHHHMIPFNKPHLTGKEVHYIYEAVHSGKISGNGIFTKKCHDFFTSTYGFTKTLMTSSCTDALEMSSLLMDIQPGDEIILPTFTFVSTANAFVLRGAKLVFVDSLATEPNMNVELIEGLITSKTKAIVVVHYAGVACDMDVVMNIAKKYQLFVVEDAAQAISSYYKDKPLGGIGDFGAFSFHETKNIISGEGGLLAINNSDYCNRSEIIWEKGTNRSAFFRGETDKYGWVDVGSSFLPSEIISAFLYAQLENVAEIQAKRLEIWNTYYNTLSPLAEHKKLRLPYIPAYATNNAHMFYVICNSLEERTALIDYLKAHNILAVFHYLSLHKSPYFSDKHDGRSMDYADQYAETLVRLPLFYDLSTEDQEFICTKILSFYSEKI”: the “soluble on expression in E. coli” value is given as “not soluble”.

Values taken from the DeepSol protein solubility set.
